Test results: the DeepSol protein solubility set

Test: soluble on expression in E. coli; label from the status in PepcDB or PDB records

With “MADDEDDIVWIREDTAQSSVPTSPTTPATIIEAAPVLSDAFDKPILKSVETISVSNGPPEVTISAPPPTPPAAPLAPQITPMVLSTVPDAAPAQDIPALILAALAPEPVPEPEPEVEAKQNVIVEKENEIKDQQQNDQLSAKLDPKTPNSVDDNSMSFDISECERKFNTAIREANDILEDFDKKSKQVAENTKFVAKELAELAADAPRVFQKTIEDHSQVPEISELPSGGLPKNVESVLIGEGILEEITGTLVLPTGQVLVTDERVGILLFNLEGDVLAKINPADFRKLWSPVYHKEHILVLADAKNAENHWSRHVIKFTCQLEYVAKIECPSWLAECTILRERLSIAHNDHLYLCVCGEIFSGIYELTPIGQWTELEYKLSEAYIDMLAFATIGPITQLLVVEGRRNYVLLVSVRESRIVDRKRMAICERPGALAKDEAGRLFVSNRFSASIQLVDTMRWVSEKNVAITEAFVRHFTACWGLLAIPLKNAVRLQRYSFRSLR” as the sequence, how does the “soluble on expression in E. coli” value read?
The value was “not soluble”.

For “MITQGPNLIGIHANEKENIETKKFVNWFLNQSITDWNSNNQQKNSDQTTKTAAEYFTDQASYILPLKEKFNKSSDLELKGSSSSSNLTTSSASASLLISNNSSTASSPAPKKTNNNSNTFTAKALELFQQAANNEIIPFSDPSDFRNGTFRNNISSSFNAAVNSK”, which “soluble on expression in E. coli” value is on record?
The value was “soluble”.

For “MGSDKIHHHHHHMLVTELNIYPLKSARGIALKESAVSAEGLPGDRRAMLTDPSGHFITQRELPAIATVLARHEDGGMALSRERSGEIFARPSGQRMDVAVWKSIVSANIADDETNDTLSAWLGREVKLVFFDDAAKRIASLEWTGNETPVTFADGYQILVTTTASLAALNDNMRGNGEDAVGMERFRPNIVLETEEAWAEDRWAAIEIGGIRFDLVKPCARCIMTTQDQMTGSRDVPSPMKAMGRIRMSGDRRVPGPLFGWNVTPRGEGRLSVGDVARVVEERPEGWAIKRR”, which “soluble on expression in E. coli” value is on record?
Its value is “not soluble”.

With “MSNSAQRDARNSRDESARASDTDRIQIAQLLAYAAEQGRLQLTDYEDRLARAYAATTYQELDRLRADLPGAAIGPRRGGECNPAPSTLLLALLGGFERRGRWNVPKKLTTFTLWGSGVLDLRYADFTSTEVDIRAYSIMGAQTILLPPEVNVEIHGHRVMGGFDRKVVGEGTRGVPTVRIRGFSLWGDVGIKRKPRKPRK” as the sequence, how does the “soluble on expression in E. coli” value read?
Its value is “not soluble”.

Which “soluble on expression in E. coli” value does the source give for “MRLIVVGIAEDITEKKQLETELQRLATTDVLTQSSNRRHFFECANREFEQARLQGSSLAFLLLDIDDFKVINDTYGHPEGDIVLQRIAESGRAALRRGDLFGRIGGEEFAAVFPGCTADMARQVAERLQREIQRQNFSHQGQTFTITVSQGLTGLLAEDESLDNLFARADSAMYEAKRQGKNRIITGLEHHHHHH” here?
The value was “not soluble”.

With “MKVVVIDAGHGAKDSGAVGISRKNYEKTFNLAMALKVESILKQNPKLEVVLTRSDDTFLELKQRVKVAENLKANVFVSIHANSSGSSASNGTETYYQRSASKAFANVMHKYFAPATGLTDRGIRYGNFHVIRETTMPAVLLEVGYLSNAKEEATLFDEDFQNRVAQGIADGITEYLDVK” as the sequence, how does the “soluble on expression in E. coli” value read?
The value was “soluble”.

Which “soluble on expression in E. coli” value does the source give for “MISCSEEGSNKILVAISLDRDESQNVLSWAINVLAKPSDTVVALHLLVGEEPRKLPMKKKKRTQIRHAKAHVISMLGEFAYTCCHNQVNLEAKVGFSSNIGRGLIDEVKSISAHYLVLSRPTTHEFR” here?
The value was “soluble”.

With “MKVGIDAGGTLIKIVQEQDNQRTFKTELTKNIDQVVEWLNQQQIEKLCLTGGNAGVIAENINIPAQIFVEFDAASQGLGILLKEQGHDLADYIFANVGTGTSLHYFDGQSQRRVGGIGTGGGMIQGLGYLLSQITDYKQLTDMAQHGDRNTIDLKVRHIYKDTEPPIPGDLTAANFGHVLHHLDADFTPSNKLAAVIGVVGEVVTTMAITVAREFKTENIVYIGSSFHNNALLRKVVEDYTVLRGCKPYYVENGAFSGAIGALYLEKLEHHHHHH” as the sequence, how does the “soluble on expression in E. coli” value read?
Its value is “soluble”.

With “MHRDSCPLDCKVYVGNLGNNGNKTELERAFGYYGPLRSVWVARNPPGFAFVEFEDPRDAADAVRELDGRTLCGCRVRVELSNGEKRSRNRGPPPSWGRRPRDDYRRRSPPPRRRSPRRRSFSRSRSRSLSRDRRRERSLSRERNHKPSRSFSRSRSRSRSNERK” as the sequence, how does the “soluble on expression in E. coli” value read?
Its value is “soluble”.

Which “soluble on expression in E. coli” value does the source give for “MALANFDGPFDLLLQLIHSHKLDITEVALAQVTDEFIAYTKTLSSSAEDLDEVTEFLVVASTLLDLKAARLVPRGEVDSEEDLALLETRDLLFARLLQYRAYKQVADLFADWQRDAARAYPATLSLEEHHANLLPEVKIGKNADEFAELAAAVFRPKPDHVDTGHIHQVAVSVPEQAGRILNTLKVAGENTWVTFGALIADAELNMIVVGRFLALLELYKARAIGIEQPEPLQDMSVAWTGLDVDPAVVAASNWE” here?
The value was “soluble”.
